Measurements from patent US20160193316A1 (priority 1994, published 2016).
No end group written: not given here.

What was measured:
[1] = biological target: T1, DRB1*0101 (DR1) (Homo sapiens, UniProt P01903+P01911, A100R/D57E/F55L/F60I/F76Y/I96L/L162R/M171V/P40L/Q125E/R42F/V115G/Y59C); assay: HLA class II peptide binding assay; settings: for DR1 binding data: Table XIXb, Malaria Super Motif Peptides With Binding Data; for DR1 binding information: DR3a motif peptides, unit not given, exemplary 15-mer containing the core sequence
T1 construct: endogenous in cells; host or cells: LG2
T1 sequence (P01903 26-254 partner, other chains not shown): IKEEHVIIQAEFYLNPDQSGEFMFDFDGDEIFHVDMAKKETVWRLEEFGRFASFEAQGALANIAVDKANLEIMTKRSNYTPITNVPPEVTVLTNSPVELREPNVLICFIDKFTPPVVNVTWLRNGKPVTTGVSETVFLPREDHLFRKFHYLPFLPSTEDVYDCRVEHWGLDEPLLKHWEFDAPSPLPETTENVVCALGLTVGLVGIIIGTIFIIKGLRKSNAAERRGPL

[2] = biological target: T2, DRB1*0701 (DR7) (Homo sapiens, UniProt P01903+P01911, A100R/A102G/A103Q/D57E/D86V/E43K/F76Y/K127E/L162R/M171V/P40G/Q125H/Q99D/R33Q/R42Y/R54Q/S133A/S66F/T210M/V115G/Y107V/Y59L/Y89S); assay: biochemical; assay type: binding
T2 construct: endogenous in cells; host or cells: Pitout

[3] = biological target: T3, DRB1*1101 (DR5w11) (Homo sapiens, UniProt P01903+P01911, A100R/A169T/A87E/I96F/K41T/L162R/M171V/P40S/Q125H/Q178H/Q39Y/Q99D/R42S/S66Y/T262R/V115G/W38E); assay: biochemical; assay type: binding
T3 construct: endogenous in cells; host or cells: Sweig
T3 sequence (P01903 26-254, other chains not shown): as the sequence (P01903 26-254 partner, other chains not shown) above

[4] = biological target: T4, DRB1*0401 (DR4w4) (Homo sapiens, UniProt P01903+P01911, A100K/A169T/F76Y/I96L/K127E/L162R/M171V/N62H/P40V/Q125Y/R42H/S133A/S149N/S66Y/V115G/V209L/W38E); assay: HLA class II peptide binding assay; settings: for DR4w4 binding data: Table XIXb
T4 construct: endogenous in cells; host or cells: Preiss
T4 sequence (P01903 26-254 partner, other chains not shown): as above

[5] = biological target: T5, DRB1*0802 (DR8w2) (Homo sapiens, UniProt P01903+P01911, A100R/A103L/A169T/F76Y/H45Y/I96F/K41T/L162R/M171V/P40S/Q125H/Q178H/Q39Y/Q99D/R218S/R42G/S66Y/V115G/W38E); assay: biochemical; assay type: binding
T5 construct: endogenous in cells; host or cells: OLL

[6] = biological target: T6, DRB5*0101 (DR2w2β2) (Homo sapiens, UniProt P01903+Q30154); assay type: binding
T6 construct: expressed in transfected cells; host or cells: L416.3 (fibroblasts) or GM3107

[7] = biological target: T7, DRB1*0405 (DR4w15) (Homo sapiens, UniProt P01903+P01911, A100R/A169T/D86S/F76Y/I96L/K127E/L162R/M171V/N62H/P40V/Q125Y/R42H/S133A/S149N/S66Y/V115G/V209L/W38E); assay: HLA class II peptide binding assay; settings: for DR4w15 binding data: Table XIXb
T7 construct: endogenous in cells; host or cells: KT3

[8] = biological target: T8, DRB1*0301 (DR3) (Homo sapiens, UniProt P01903+P01911, A100K/A102G/A103R/A169T/F55Y/I96L/K41T/L162R/M171V/P40S/Q125H/Q178H/Q39Y/R42S/S66N/T106N/T262R/W38E/Y61H); assay: HLA class II peptide binding assay (pH 4.5); settings: for DR3 binding data: Table XIXb; for DR3 binding information: DR3a motif peptides, unit not given, exemplary 15-mer containing the core sequence
T8 construct: endogenous in cells; host or cells: MAT

[9] = biological target: T9, DRB1*1201 (DR5w12) (Homo sapiens, UniProt P01903+P01911, A100R/A169T/D57E/D86V/F55L/H45Y/K41T/L162R/M171V/P40S/Q125H/Q178H/Q39Y/Q99D/R42G/S66L/T262R/V114A/V67L/W38E/Y59H/Y61H/Y89S); assay: HLA class II peptide binding assay; settings: Table XIXb; DR5w12
T9 construct: endogenous in cells; host or cells: Herluf

[10] = biological target: T10, DRB1*0901 (DR9) (Homo sapiens, UniProt P01903+P01911, A100R/A103E/D57H/D86V/F55Y/F60I/F76Y/I96F/K127E/L162R/M171V/P40D/Q125H/Q99R/R33Q/R42F/S133A/S66N/T210M/V115G/W38K/Y107V/Y59G/Y89S); assay: biochemical; assay type: binding
T10 construct: endogenous in cells; host or cells: HID

[11] = biological target: T11, DRB1*1501 (DR2w2β1) (Homo sapiens, UniProt P01903+P01911); assay: HLA class II peptide binding assay; settings: for DR2w2β1 binding data: Table XIXb; for DR2w2β1 binding information: DR3a motif peptides, unit not given, exemplary 15-mer containing the core sequence
T11 construct: expressed in transfected cells; host or cells: L466.1 (fibroblasts)

[12] = biological target: T12, DRB1*1302 (DR6w19) (Homo sapiens, UniProt P01903+P01911, A100E/A169T/K41T/L162R/M171V/P40S/Q125H/Q178H/Q39Y/Q99D/R42S/S66N/T262R/V115G/W38E/Y61H); assay: HLA class II peptide binding assay; settings: for DR6w19 binding data: Table XIXb
T12 construct: endogenous in cells; host or cells: H0301
T12 sequence (P01903 26-254, other chains not shown): as the sequence (P01903 26-254 partner, other chains not shown) above

[13] = biological target: T13, DRB4*0101 (DRw53) (Homo sapiens, UniProt P01903+P13762, G164S); assay: HLA class II peptide binding assay (pH 5.0)
T13 construct: expressed in transfected cells; host or cells: L257.6 (fibroblasts)

[14] = biological target: HLA-A*1101 (Homo sapiens, UniProt P04439, A114D/D185E/E176A/F33Y/L180Q/S129P/T187R); assay: HLA class I peptide binding assay; settings: Table XVII, malaria A11 motif peptides; binding value unit not given
[15] = DR3a motif peptides, unit not given, exemplary 15-mer containing the core sequence

Sequence | DR1 binding data ([1]; DR1) | DR7 binding data [2] | DR5w11 binding data [3] | DR4w4 binding data [4] | DR8w2 binding data [5] | DR2w2β2 binding data [6] | DR4w15 binding data [7] | DR3 binding data [8] | DR5w12 binding data [9] | DR9 binding data [10] | also measured
LGNVSTVLL | 0.0430 | 0.4300 | 0.0005 | 0.0065 | 0.0012 | 0.0013 | 0.0360 | 0.0059 | 0.0001 | 0.5300 | DR2w2β1 binding data [11]: 0.0240
LYADSAWEN | – | – | – | – | – | – | – | – | – | – | DR1 binding information [1]: 0.0002; DR7 binding information [2]: -0.0014; DR6w19 binding information [12, 15]: 0.0003; DR5w11 binding information [3]: -0.0006; DR8w2 binding information [5]: -0.0009; DR2w2β2 binding information [6]: -0.0010; DR3 binding information [8]: 0.3500; DR2w2β1 binding information [11]: 0.0005
PDSIQDSLKESRKLN [Peptide 35.0171] | – | – | – | – | – | – | – | – | – | – | IC50 ([1]; read-out: Binding capacity (IC50 nM) DR1, DR1): > 20000 nM; IC50 [2]: > 20 µM; IC50 [12]: > 20 µM; IC50 [3]: > 20 µM; IC50 [5]: > 20 µM; Alleles bound (DR3) ([8]; binding to DR3, Table XXXIV): DR3; IC50 [10]: > 20 µM; IC50 [11]: 2.29 µM
VCNDEVDLY | – | – | – | – | – | – | – | – | – | – | DR1 binding information [1]: 0.0003; DR7 binding information [2]: -0.0003; DR5w11 binding information [3]: 0.0001; DR4w4 binding information [4, 15]: -0.0014; DR8w2 binding information [5]: -0.0003; DR2w2β2 binding information [6]: 0.1300; DR4w15 binding information [7, 15]: -0.0004; DR3 binding information [8]: -0.0006; DR2w2β1 binding information [11]: -0.0006; DRw53 binding information [13, 15]: -0.0010
VHDLISDMI | 0.0130 | 0.0100 | 0.0037 | 0.0310 | 0.0096 | 0.0061 | 0.0075 | 0.0100 | 0.0001 | 0.0430 | DR6w19 binding data [12]: 0.0004; DRw53 binding data ([13]; Table XIXb, DRw53): 0.0940
VNHAVPLAM | – | – | – | 3.900 | 0.200 | – | 0.0400 | 0.2300 | – | 4.000 | –
VVPGAATPY | 0.1100 | 0.0160 | 0.0036 | 0.0057 | 0.0026 | 0.0053 | -0.0014 | -0.0008 | 0.0061 | 0.0200 | DR6w19 binding data [12]: 0.0017; A*1101 binding information [14]: 0.0002; DR2w2β1 binding data [11]: 0.0008
